Measured values published in publication PMC2504306 (Nucleic Acids Research, 2008).
Like-named read-outs stand apart in the source and are kept apart here. One block for each molecule: values may come before it.

Assays:
Assay in all cases: SPR
[1] = target: C-terminal topoisomerase domain of Sulfolobus solfataricus reverse gyrase TopR1 (Sulfolobus solfataricus P2) (UniProt Q97ZZ8)
[2] = target: T1, C-terminal topoisomerase domain of Sulfolobus solfataricus reverse gyrase TopR1 (Sulfolobus solfataricus P2, UniProt Q97ZZ8 605-1242)
T1 sequence (looked up): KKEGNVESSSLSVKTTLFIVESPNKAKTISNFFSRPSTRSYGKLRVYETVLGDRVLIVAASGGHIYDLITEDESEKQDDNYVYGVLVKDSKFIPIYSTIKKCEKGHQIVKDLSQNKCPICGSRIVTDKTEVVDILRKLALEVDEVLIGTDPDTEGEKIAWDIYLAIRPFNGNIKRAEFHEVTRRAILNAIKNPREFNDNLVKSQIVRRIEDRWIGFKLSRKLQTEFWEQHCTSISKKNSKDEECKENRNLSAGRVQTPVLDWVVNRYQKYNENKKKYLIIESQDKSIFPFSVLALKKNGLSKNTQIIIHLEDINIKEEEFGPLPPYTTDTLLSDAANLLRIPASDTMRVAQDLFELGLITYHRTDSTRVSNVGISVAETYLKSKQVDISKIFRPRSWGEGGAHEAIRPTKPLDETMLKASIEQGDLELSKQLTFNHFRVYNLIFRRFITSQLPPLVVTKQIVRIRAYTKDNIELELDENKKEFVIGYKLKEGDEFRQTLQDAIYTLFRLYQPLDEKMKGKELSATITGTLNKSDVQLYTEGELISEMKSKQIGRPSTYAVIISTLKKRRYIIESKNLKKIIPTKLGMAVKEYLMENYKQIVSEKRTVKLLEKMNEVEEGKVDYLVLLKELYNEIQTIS

[3] = target: T1, C-terminal topoisomerase domain of …; remark: listed apart in the source
[4] = target: T1, C-terminal topoisomerase domain of …; remark: listed apart in the source

Ka [1]: 284 M⁻¹
Kd [1]: 3530 µM
koff [1]: 0.00313 s⁻¹
kon [1]: 0.887 M⁻¹ s⁻¹
Molecule: non-specific DNA-binding protein Smj12 of S. solfataricus (natural protein)

Ka [2]: 2.87e+06 M⁻¹
Kd [2]: 0.349 µM
koff [2]: 0.00152 s⁻¹
kon [2]: 4350 M⁻¹ s⁻¹
Ka [3]: 6.32e+06 M⁻¹
Kd [3]: 0.158 µM
koff [3]: 0.00109 s⁻¹
kon [3]: 6900 M⁻¹ s⁻¹
Ka [4]: 7.59e+06 M⁻¹
Kd [4]: 0.132 µM
koff [4]: 0.00187 s⁻¹
kon [4]: 14200 M⁻¹ s⁻¹
B1: N-terminal ATPase (helicase-like) domain of Sulfolobus solfataricus reverse gyrase TopR1 (domain or fragment, Sulfolobus solfataricus P2, UniProt Q97ZZ8 1-607, looked up)
chain: MTSINKVPPSIYTRSCPNCGGNISSQRLFNGSVCESCLKDDREFSNLSDLINILSENSNLKNLTQIRDVLEEYKKVEEIFGKLLNNSKPIGPQRSWTIRFLRGESFAIIAPPGLGKTTFGLIMSLYNATRNRKSIIIFPTRTLISQTVDKLAKFSELYSYSPRILYNKQSPTQTENILDQLKSGNFDIFISTNRFVIQNLSELSNIKFDFIFVDDVDAALKSGKSAKAILRLVGFTDEDIQTTMKLLRENIGEEEKFGKIQEIRESRLKDKIVIFSSATISRGNPILSSLMGFRPGSSVIYLRNIYDSYIDLTQTCKGQDFEECTLGTVIKLLKRLNDGTLIFVPIDKGAQYADYLASNLRDHGINVESVASSSISKLEKFERGEVSSLVGVATHYGVLVRGIDLPWRVKYSIFVGIPKFKFKIGEYMHPLALTRLLSLVYLVKNDDKVRGLLSYIRKRLRKISPAALAMLAKDIREGKIDDERLKEAYNLVNEYLKDNEFLKKVSDVGDLVIEGDYILMPDYLTYIQASGRTSRLYGANLTTGLSVLLIDNSRLFELLNKKLNLILDEVKWYSLDIDADKLGQVSLSDISAKITEERESLSKIKKE
